Self-cleavage data for 167 variants are collected here from the RNAGym collection of RNA variant scans (doi:10.7554/elife.80360).

B1: HDV Ribozyme (parent)
chain: GGCCGGCAUGGUCCCAGCCUCCUCGCUGGCGCCGGCUGGGCAACAUUCCGAGGGGACCGUCCCCUCGGUAAUGGCGAAUGGGACCCA

In the data set the parent is B1. In words: self-cleavage, relative activity (ratio to wild type); higher = more cleavage; co-transcriptional.
For the variant G29C A87U, the self-cleavage is 0.0378.
Turning to C36A A77C, the self-cleavage is 0.259.
Take G52U U72C: the self-cleavage stood at 0.426.
In the case of C21G A42G, the self-cleavage was determined as 0.0573.
Then C41A A87U, with 0.866.
For the variant C44A G73A, the self-cleavage is 0.577.
Consider G1A C36A, for which the self-cleavage stood at 0.154.
For the variant G11A A51U, the self-cleavage worked out at 0.468.
As to C41A U46A, the self-cleavage worked out at 0.7.
Turning to C13G C62G, the self-cleavage worked out at 0.158.
For the variant G28C G35U, the self-cleavage turned out to be 0.0997.
Consider C4G A71G, for which the self-cleavage is 0.277.
On to C32A U46A, for which the self-cleavage is 0.185.
As to G38C G50C, the self-cleavage came out at 0.35.
In the case of U20G G50C it was 0.138.
G1U G55U: the self-cleavage came to 0.455.
As for G68U A78U, the self-cleavage was determined as 0.237.
With G29C G40U, the self-cleavage was determined as 0.0615.
For the variant C24G U37G, the self-cleavage worked out at 0.
Turning to G34C C63A, the self-cleavage came out at 0.166.
Turning to C57U G68U, the self-cleavage is 1.17.
Consider U9A G38C, for which the self-cleavage was 0.237.
For the variant U47G G67C, the self-cleavage amounted to 0.554.
Turning to C41G G76A, the self-cleavage worked out at 0.991.
Then A16C C66A, with 0.718; and G11A G59C, with 0.381; and C14U C61U, with 1.22.
In the case of G28C C64U it was 0.198; in that of C30U C84A, 0.252.
In the case of G5A C64A, the self-cleavage was found to be 0.198.
G6U U37A: the self-cleavage worked out at 0.0437.
Then G10A C30A, with 0.0913.
Take G40A G73C: the self-cleavage was 0.544.
For G5U G55A, the self-cleavage stood at 0.467.
In the case of C33U G38C it was 0.125.
Regarding G35A A87C, the self-cleavage is 0.444.
As to U9G U23C, the self-cleavage worked out at 0.923.
Turning to C19A C44A, the self-cleavage is 0.149.
In the case of G6U C33U, the self-cleavage is 0.217.
Regarding U20A C48A, the self-cleavage was found to be 0.0573.
On to C48G C66G, for which the self-cleavage was 0.906.
Then A8U A56G, with 0.957; and G29C G67C, with 0.104.
On to G28U C63U, for which the self-cleavage was 0.12.
C30A G82A: the self-cleavage worked out at 0.0898.
U23C A56C: the self-cleavage turned out to be 0.942.
With U23C C48A, the self-cleavage turned out to be 1.12.
As for U9G G76A, the self-cleavage came to 1.23.
In the case of G2U C48U, the self-cleavage is 0.0563.
G39A C64G: the self-cleavage is 0.492.
As to C15G C36A, the self-cleavage came to 0.306.
Then C19G C24A, with 0.115.
In the case of C36A G74A it was 0; in that of C7A G34U, 0; in that of G38C A78U, 0.0308.
In the case of G17U C24G it was 0.128.
On to C3G C86A, for which the self-cleavage came to 0.876.
In the case of U9C C26A it was 1.25; in that of G11U C30A, 0.128; in that of G81C C85G, 0.128.
For U27C G38A, the self-cleavage was 0.0978.
As to A8C U69A, the self-cleavage was determined as 0.688.
In the case of C57G G59C it was 0.969.
In the case of A42G C49U, the self-cleavage is 0.489.
U46A U72G: the self-cleavage was 0.65.
For G40C U65A, the self-cleavage was determined as 0.326.
As for G35U C63A, the self-cleavage turned out to be 0.389.
In the case of C13A C41U it was 0.149.
For A16C G76U, the self-cleavage amounted to 0.88.
With C4A C75G, the self-cleavage amounted to 0.0396.
G6A C57U: the self-cleavage is 0.665.
As to A51G G80U, the self-cleavage was determined as 0.229.
As for C48A C63A, the self-cleavage was determined as 0.816.
Then U9G U60A, with 0.831; and C63G G80U, with 0.199; and A43G C86U, with 0.739.
As to U65A G76A, the self-cleavage worked out at 0.976.
With G5A C30U, the self-cleavage worked out at 0.0692.
Then C15G G39C, with 0.0723; and U9G G54U, with 0.831; and G67U G81C, with 0.305.
Regarding G81U G82U, the self-cleavage is 0.211.
As to C14A A71U, the self-cleavage turned out to be 0.852.
As to C58A A70U, the self-cleavage was determined as 1.
As for G59U C86G, the self-cleavage was determined as 0.975.
Consider C14A G34U, for which the self-cleavage is 0.101.
As to G35C A78G, the self-cleavage was 0.262.
C36A C57A: the self-cleavage came out at 0.297.
Take U12C G52U: the self-cleavage is 0.35.
On to G50C A71U, for which the self-cleavage amounted to 0.554.
Turning to U9A G11C, the self-cleavage was 0.609.
For the variant G10A C22U, the self-cleavage came out at 0.157.
Regarding G1U C66U, the self-cleavage came to 0.296.
In the case of G35A U65C, the self-cleavage worked out at 0.521.
In the case of A83G C85A it was 0.677.
Take C13A U79C: the self-cleavage came out at 0.0692.
Regarding C41A A70U, the self-cleavage was 0.817.
For C18U U47A, the self-cleavage was 0.293.
Turning to G6C A77U, the self-cleavage worked out at 0.145.
Take C75G C85A: the self-cleavage worked out at 0.208.
Then U23G A51G, with 0.8.
As for U23A U79A, the self-cleavage came to 0.646.
With C3U C4U, the self-cleavage stood at 0.655.
C30G G74A: the self-cleavage came to 0.0733.
As for C44G C62G, the self-cleavage was determined as 0.485.
For C7U G39U, the self-cleavage stood at 0.289.
Consider A51C G74U, for which the self-cleavage is 0.383.
Regarding C41G C61G, the self-cleavage amounted to 0.875.
As to C19G G80C, the self-cleavage turned out to be 0.0773.
Then C44U U46C, with 0.571; and C49A C86U, with 0.795.
Take G6C C64U: the self-cleavage turned out to be 0.244.
Consider G38C C62G, for which the self-cleavage was 0.208.
In the case of C18A G54A it was 0.0779; in that of A42G G74U, 0.0791.
As for U46C C49G, the self-cleavage was 0.554.
Then G17U U65C, with 0.332; and G38U C48A, with 0.0978.
Turning to U12G C57G, the self-cleavage came out at 0.931.
Then G53C G73U, with 0.369; and C4G A78G, with 0.0923; and G35U G38A, with 0.0702.
Then G10C C21U, with 0.0256; and G5C A42C, with 0.115; and G35C U37A, with 0.
In the case of A45U U47C, the self-cleavage worked out at 0.772.
Then C15U G28U, with 0.227; and G17A U65A, with 0.752; and G29C C84G, with 0.208.
In the case of C18A U27A it was 0.131.
Consider A16C C44A, for which the self-cleavage amounted to 0.289.
With U37C U72A, the self-cleavage amounted to 0.356.
In the case of G67C C84A it was 0.682; in that of U65G C66U, 0.702; in that of C18U C44A, 0.0978.
Consider A8G C30G, for which the self-cleavage worked out at 0.128.
Take G54C C84A: the self-cleavage was determined as 0.598.
In the case of G1A G67C it was 0; in that of C3A G34U, 0.109; in that of C48G A87U, 1.09.
With C13U G25U, the self-cleavage was found to be 0.
In the case of C15A C22G it was 0.113; in that of U23A C85A, 0.68.
On to U65A A78U, for which the self-cleavage was found to be 0.396.
With G1A C13G, the self-cleavage was 0.
On to G2A G81U, for which the self-cleavage is 0.0346.
With G38C A70U, the self-cleavage was found to be 0.185.
Turning to G10A C26U, the self-cleavage came to 0.874.
As for C32A U69A, the self-cleavage was 0.0652.
U12C A70C: the self-cleavage stood at 0.
As for A16U G80A, the self-cleavage is 0.812.
For A43U U72G, the self-cleavage came out at 0.256.
With C33U U47G, the self-cleavage amounted to 0.692.
As for G17C G67C, the self-cleavage was found to be 0.289.
Consider G10U U23G, for which the self-cleavage is 0.0791.
For the variant C30G G67C, the self-cleavage turned out to be 0.0528.
With C22U G55A, the self-cleavage came out at 0.717.
In the case of U9A G31A it was 0.554; in that of C32A C85A, 0.341; in that of G29A A56C, 0.198.
In the case of G17C U46C, the self-cleavage turned out to be 0.0791.
Take C33A C49U: the self-cleavage was 0.212.
On to C7U C48U, for which the self-cleavage amounted to 0.997.
Consider G28A C44U, for which the self-cleavage was 0.215.
In the case of G1C C63U it was 0.0898.
G53U U79A: the self-cleavage worked out at 0.509.
In the case of A16C C24G it was 0.0692.
